This note sets out measurements from PMC2924314, “Peptides derived from the HIV-1 integrase promote HIV-1 infection and multi-integration of viral cDNA in LEDGF/p75-knockdown cells” (Virology Journal, 2010).

By Kd is commonly meant the constant that tells how readily two partners part at equilibrium. Higher therefore signals a looser complex.

The test deals with INS (IN derived-integrase stimulatory peptide) (HIV-1). Briefly: ELISA.

“Lens Epithelium Derived Growth Factor p75 (LEDGF/p75), histidine-tagged recombinant, O75475 1-530 (natural protein; other documents disagree on this pair)” had a Kd of 2200 nM.
